According to paper PMC3962013 (Cell, 2014):
Residue numbers refer to the chain shown, from its start.

T1: C. elegans SYG-2 ectodomain (C. elegans, UniProt Q9U3P2 20-1084)
T1 sequence (looked up): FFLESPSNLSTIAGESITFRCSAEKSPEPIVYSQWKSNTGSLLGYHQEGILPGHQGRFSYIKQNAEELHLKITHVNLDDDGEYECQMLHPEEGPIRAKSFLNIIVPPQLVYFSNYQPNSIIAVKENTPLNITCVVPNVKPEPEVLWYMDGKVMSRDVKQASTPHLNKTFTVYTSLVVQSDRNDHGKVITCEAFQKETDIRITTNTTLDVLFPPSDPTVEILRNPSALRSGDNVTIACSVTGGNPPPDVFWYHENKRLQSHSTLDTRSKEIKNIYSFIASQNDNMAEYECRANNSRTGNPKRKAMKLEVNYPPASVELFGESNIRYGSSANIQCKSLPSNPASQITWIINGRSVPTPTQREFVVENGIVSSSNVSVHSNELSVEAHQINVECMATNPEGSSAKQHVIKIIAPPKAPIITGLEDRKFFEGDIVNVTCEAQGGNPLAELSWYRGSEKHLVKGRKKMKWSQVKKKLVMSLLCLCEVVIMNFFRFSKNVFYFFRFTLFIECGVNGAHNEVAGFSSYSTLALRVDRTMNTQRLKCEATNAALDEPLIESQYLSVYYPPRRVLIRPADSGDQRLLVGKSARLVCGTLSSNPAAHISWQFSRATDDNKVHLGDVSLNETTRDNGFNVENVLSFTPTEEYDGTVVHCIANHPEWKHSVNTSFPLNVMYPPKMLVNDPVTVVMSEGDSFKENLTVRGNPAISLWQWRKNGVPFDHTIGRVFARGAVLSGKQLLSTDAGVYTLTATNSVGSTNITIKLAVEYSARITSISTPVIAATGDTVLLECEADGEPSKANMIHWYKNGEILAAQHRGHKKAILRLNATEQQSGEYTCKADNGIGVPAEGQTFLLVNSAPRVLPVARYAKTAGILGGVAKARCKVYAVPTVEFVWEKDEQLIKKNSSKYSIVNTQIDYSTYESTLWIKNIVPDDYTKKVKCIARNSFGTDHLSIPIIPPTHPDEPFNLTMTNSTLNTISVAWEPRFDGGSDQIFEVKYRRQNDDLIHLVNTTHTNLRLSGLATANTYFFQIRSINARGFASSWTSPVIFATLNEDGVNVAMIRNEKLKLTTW

B1: C. elegans SYG-1 ectodomain (domain or fragment, UniProt B1Q236 19-551, looked up)
chain: QQLQQRIVEAPKDTLAAVGETAILTCRVEHQQGPVQWMKDDFGLGTDRDKPLPGNKRYRMVGSAANGEYNLEISNVTLFDDDDFACQISESDHAKAVVSSKAKLTVLVRPTPPKIVKSHHSLKAIAGDPITQSCLSRKGKPPPTIGWAIASDEHGKHIVSWLGESRSKFGGIHAKPEISQETVIAHVNETTQVEEGGNNSREDSSIYSIMSNLSFIPRPEDDHKYLICISQHMTFPNKIEVDSVKLSLRYAPQINLTVASKLPLRENGSALLACNVNAKPLDNVKISWYKGNQKLRETGDTLTFETLKMEDHNRDIFCEATNEIGTTRGSIKLNVAFGARIMSTSQDKEVNEGDNAFFHCATLANPAPAIFWTRGDSDEIIGHGENLTLENVRTWQQGNYNCTATVEGFRKQILSHYLHIRGPPTVSMKDEVSASLDEATEIICEISGRPKTNNVRWTVNGKEINFNNGRITVHQYPKPYGKESILKIKDLKEEDFGVYNCSANNGLGFDNRGTLLKKRNILDWIVITAKFDR
B2: SYG-1 Q54 mutant (domain or fragment)
chain: B1 chain with Q36A

Key:
[1] = target: T1, C. elegans SYG-2 ectodomain; assay: ITC + SPR
[2] = target: wild type SYG-2 (SPR series with mutants, construct not stated) (C. elegans); assay: SPR

Binder	Kd [1]	fold weaker affinity than wild-type SYG-1 [2]
B1	~0.6 µM	–
B2	–	7 fold
